Consider 99 substances from the supplement of paper PMC12042874.

± gives the uncertainty stated by the source.

A short description of the series: amyloid nucleation score (Sup35N fusion, yeast selection) (log enrichment); library NNK3; higher = more nucleation; inactive = no reads after selection. In short, it runs like this:
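Peptides of 20 random codons fused to Sup35N were expressed in psi-negative yeast, induced 24 hours with 100 μM copper sulfate, then grown 7 days at 30°C on medium lacking adenine and uracil. Input and output plasmid inserts were Illumina-sequenced. Nucleation score is the DiMSum log enrichment of output over input reads, centred on the mode score of non-aggregating sequences, excluding sequences with under 100 input reads. Random libraries had three technical output replicates.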
For ALSRMGEFEDYCLTMGKKVF, the amyloid nucleation score entry is “inactive”. For the substance NNLSNWIRKVCNSYYHPTYQ, the amyloid nucleation score result was “inactive”. Consider LSSWTNLLIWSLNLCPVMFV, for which the amyloid nucleation score entry is “inactive”. As for RYTNAYRQASLRV, the amyloid nucleation score entry is “inactive”. Turning to MRGRFLASPGWFTFRIFFVF, the amyloid nucleation score came to 0.836 ± 0.27. For the substance QLSFMEGANLRYCDFKPMIV, the amyloid nucleation score entry is “inactive”. Consider QIFLVKPMSDFSCNSSRYTL, for which the amyloid nucleation score was -0.423 ± 0.76. The value for VGRNECARRMVLRKWWLYLV was “inactive”; that for YMYELVTSRFKRNQVMCVID was “inactive”. The value for MFGVVTGLTLGSSTFHA was “inactive”; that for KSSSFSFVASCGHAVILQKK was “inactive”; that for GNASMLWDNMSVVFLRGTLY was 1.53 ± 0.074.

SPTLRFGRQKFRQCGVKRVS showed an amyloid nucleation score of 1.35 ± 0.11. Turning to ILHLQSPGQATCANNKCLFP, the amyloid nucleation score result is “inactive”. Turning to FVEVRVD, the amyloid nucleation score entry is “inactive”. Regarding PIRWYRRSLFLCWLTDDRLG, the amyloid nucleation score result is “inactive”. The value for DTGDCVPGVLSRYLMIWDG was “inactive”.

Turning to YRLYDQLRGYRGLAYLTYVL, the amyloid nucleation score was -0.187 ± 0.69. The value for RNYRGTSEIRCVPWLSSVSW was “inactive”; that for CSSSYMGQDHVFVSDSARCS was “inactive”. The result for LSFTEY reads “inactive”. The result for FINRVSPYMRSNRSLVGVSS reads “inactive”. LLVCVFFGVLKIYFIVAIRW: the amyloid nucleation score result was “inactive”. The value for VRPLRSVLFDVASNVIGSVG was “inactive”; that for LLLSSILRYS was “inactive”.

CHASVW: the amyloid nucleation score entry was “inactive”. The result for SFSFVQGSVPSTSFGSLKLA reads “inactive”; that for YLGLRKIWIYL, “inactive”.

Regarding LGQFDTDTLAHDSMGAGNAV, the amyloid nucleation score was 1.24 ± 0.16.

In the case of YVNVSACNNGMLLGWQVG, the amyloid nucleation score result is “inactive”. Consider NVCDRLLDKPHELSFSEKSV, for which the amyloid nucleation score result is “inactive”. On to DLNLVMSSGSRDRLNSLLRR, for which the amyloid nucleation score entry is “inactive”. The result for CSNVRPLD reads “inactive”; that for FSTMKLISMHCRVS, “inactive”. For the substance SISQTIVCTRPRVSAMIWFC, the amyloid nucleation score entry was “inactive”.

NVFLMAYRVYACKLRGTGLS: the amyloid nucleation score entry is “inactive”.

NIILCCAKVFKPYMSTMTTP returned an amyloid nucleation score of 1.98 ± 0.061. The value for VYTTS was “inactive”; that for LCATFMNYRVKIWSQLRY was -0.426 ± 0.66. Consider LSRMTRESKPQEISAQARLD, for which the amyloid nucleation score was determined as 1.14 ± 0.13.

In turn, ITICVSIF registered an amyloid nucleation score of 1.75 ± 0.072. The value for VYGWMVVHVGRLWTWLHRLL was “inactive”; that for SDQFLIMEDSCSTPGRRSFK was 0.408 ± 0.29.

Substance YLMVTVSALPSACCGVCVPW returned an amyloid nucleation score of 1.48 ± 0.1. The value for NYGPGHRGGSN was “inactive”; that for TYLCGFHLYCC was “inactive”. Regarding HNGDRVDY, the amyloid nucleation score result was “inactive”. The value for VMLCFTFSMLVLVGGQVCLY was “inactive”; that for FRNSLQ was -0.725 ± 1.1; that for GSRLHRFPNVKLDALFIYRW was “inactive”. Consider YSLFWCNNNVRGGKASMWYR, for which the amyloid nucleation score result is “inactive”. SDWRRISVLIMFTEARSFLV: the amyloid nucleation score result is “inactive”. On to EKDMFQNVLLVKAYD, for which the amyloid nucleation score result is “inactive”. The value for CKTVAYEYFTGLSLVLDFTR was “inactive”; that for SVAFSWGMWCDSLDYFGSVS was “inactive”. The value for VVDYNKDQDGAMTASRGDRK was -0.726 ± 1.5. YRRSGTYMSDSGVLVVKVCV: the amyloid nucleation score result is “inactive”.

With CKVTHSLI, the amyloid nucleation score result is “inactive”. The value for HRTTWLIWPLS was “inactive”. SRYQMGYKCFMSWHHTGHFN: the amyloid nucleation score entry was “inactive”. The value for HLVAMMLCQLDTLTFYRYGG was “inactive”.

In the case of RCFFNRMRTDVYSVDSKVSF, the amyloid nucleation score entry is “inactive”. With IIFFWILS, the amyloid nucleation score came out at 0.16 ± 0.29. In the case of VCKLVTYSYLLVREPRSADS, the amyloid nucleation score result was “inactive”. For SYVNIFHDGIIMNSYVAWGH, the amyloid nucleation score result is “inactive”. The result for SGALAKDVSVGVCVRPARLY reads 0.653 ± 0.19. As to LHGNLRNLI, the amyloid nucleation score result was “inactive”. The result for RYGTLGDLV reads “inactive”; that for RGILFLV, “inactive”; that for NIHFSITAQ, “inactive”.

On to ELHYPVLVDS, for which the amyloid nucleation score entry is “inactive”.

With DLHVWLGVKQ, the amyloid nucleation score entry was “inactive”. The value for SFLRYNKSY was “inactive”; that for CSSKKRDV was “inactive”. As to MFYMIFIVYQSWLKNASYLC, the amyloid nucleation score result was “inactive”. For the substance CKVSAL, the amyloid nucleation score entry is “inactive”. CTECDNSFRPLKNRDTYTAR yielded an amyloid nucleation score of 0.046 ± 0.27.

As for YEGRSNSVRSK, the amyloid nucleation score result was “inactive”. The result for FITFLLVVFSKKCVNAK reads “inactive”; that for YVSTHLSVYTKSFRDMIAPG, “inactive”; that for SNRVRMSFLLADVYCNQTEV, -0.183 ± 0.42.

The substance LCPRRMA returned an amyloid nucleation score of 0.592 ± 0.29. The value for MFITRVLR was “inactive”; that for YFVALVS was “inactive”; that for LWLIPC was “inactive”. The result for YFILLGSAGRCAPMM reads 0.71 ± 0.23; that for FINFELLRSSSNNV, “inactive”; that for ISLVGFHVKLVFL, 2.11 ± 0.09. For GSQRLLALWNY, the amyloid nucleation score result is “inactive”.

With GTFLIFDKFKLS, the amyloid nucleation score result is “inactive”.

As for RFRVLTYIISYSFSFCHHVW, the amyloid nucleation score was found to be 0.356 ± 0.27. Turning to CEDGA, the amyloid nucleation score was -0.068 ± 0.75. LPLVVIFQLSTYVRQWYA: the amyloid nucleation score came out at 0.618 ± 0.28. The value for ANRYNSITE was -0.765 ± 1.5; that for VIDEYQSVICGYLIRGWHAS was 1.79 ± 0.088. Regarding VYRIARMAQHLIRWKNR, the amyloid nucleation score turned out to be 0.187 ± 0.7. The result for GDCCHMADKTGGGTNRQIYH reads “inactive”; that for WYGRLGWRLVRPLGRYFTRS, “inactive”. The result for SGSLPMRTMLFP reads “inactive”.
